Two substances from article PMC11358414 can be followed below.

This test addresses DEP-Venus (DEP domain of Disheveled, DVL) (UniProt O14641). Kind of test: NanoBiT-based DEP recruitment BRET assay (BRET titration). As to conditions: HEK293A cells, FLAG-LgBiT-CAAX cotransfected, baseline-corrected …, parent: est. 0.38, read off a plot.

Consider “FZD7-SmBiT, wild type (from UniProt O75084) F345A; H382A”, for which the response (value read at the right end of the fitted curve (Venus fluorescence about 27000 arb. units)) stood at 0.08 net BRET.

In the case of “FZD7-SmBiT, wild type (from UniProt O75084) F345A; W386A”, the response (value read at the right end of the fitted curve (Venus fluorescence about 23000 arb. units)) is 0.1 net BRET.
